Test results: patent US20150351390A1, “COMPOSITIONS AND METHODS FOR AUXIN-ANALOG CONJUGATION” (PIONEER HI-BRED INTERNATIONAL, INC., priority 2012, published 2015)

Columns and labels:
[1] = LC-MS assay of GH3 conjugation of 2,4-D with Asp or Glu; type: biochemical; settings: 5 mM 2,4-D substrate; for kcat (hrs−1) 2,4-D-Asp: conjugation of 2,4-D with Asp by recombinant GH3 protein, 2,4-D-Asp product by LC-MS; for kcat (hrs−1) 2,4-D-Glu: conjugation of 2,4-D with Glu by recombinant GH3 protein, 2,4-D-Glu product by LC-MS
Summary of the method: (§1)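 Rxn: 20 mM Tris-HCl pH 8.0, 5 mM MgCl2, 1 mM DTT, 5 mM ATP, 5 mM auxin, 5 mM Asp/Glu, 44–164 μg/mL purified His-GH3; 30° C., 3 h. MeOH quench, supernatant diluted 20×, LC-MS vs conjugate standards.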

[2] = LC-MS assay of GH3 conjugation of IAA with Asp or Glu; type: biochemical; settings: for kcat (hrs−1) IAA-Asp: conjugation of IAA with Asp by recombinant GH3 protein, IAA-Asp product by LC-MS; for kcat (hrs−1) IAA-Glu: conjugation of IAA with Glu by recombinant GH3 protein, IAA-Glu product by LC-MS
Summary of the method: as §1

| Molecule | kcat (hrs−1) 2,4-D-Asp [1] [h⁻¹] | kcat (hrs−1) 2,4-D-Glu [1] [h⁻¹] | kcat (hrs−1) IAA-Asp [2] [h⁻¹] | kcat (hrs−1) IAA-Glu [2] [h⁻¹] |
| --- | --- | --- | --- | --- |
| PtGH3-4: GH3 protein, accession EEE95321 (protein, listed as Populus trichocarpa) MPEEAPMKNLVCEKSRKALQFIEDVTRNADEVQRKVLAEILSRNANVEYLQRYGLNGNKADREAFKKVMPVVSYEDLKPDIDRIANGDTSQIICSQPISEFLTSSGTSAGERKLMPTIEEELGRRSLLYSLLMPVMNQFVPGLDRGKGMYFLFIKSETKTPGGLLARPVLTSYYKSSYFRDRPYDPYTNYTSPNETILCQDSYQSMYSQLLCGLYQNYDVLRVGAVFASGFIRAIKFLEKHWILLCNDIRNGTIDPKISDPSVREAVLKILKPNQKLADFIEAECTRESWKGIITRLWPNTKYIDVIVTGTMSQYIPTLDYYCDGLPLVCTMYASSECYFGLNLNPLSKPSEVSYTLIPTMAYFEFLPVNRKNGLINSITAPTSLDQKKDQELVDLVDVKLGEEYELVVTTYAGLYRYRVGDILRVAGFKNKAPQFNFVCRKNVVLSIDSDKTDEVELQNAVQNAANHLLPFGASLTEYTSYADTSKIPGHYVLFWEICLSGTTPIPPSVFEDCCLAIEESLNSVYRQGRVSDKSIGPLEIRITERGAFDKLMDFALSQGASINQYKAPRCVKYAPIIELLNSRVVSNYISPKCPKWVPGHKQWCTPN | 0.740 | 0.536 | 660.985 | 93.781 |
| PtGH3-3: GH3 protein, accession EEE85053 (protein, listed as Populus trichocarpa) MAVDNALSSPLGPPACEKDAKALQFIEEMTRKTDSVQEDVLAKILIQNAEVEYLKRFNLDGATDRETFKSKLPTIRYEDLQPEIQRIANGDRSSILSTHPISEFLTSSGTSAGERKLMPTIKQELDRRQLLYSLLMPVMNLYVPGLDKGKGLYFLFVKSETRTPGGLLARPVLTSYYKSDHFKTRPYDPYNVYTSPNEAILCADSFQSMYTQMLCGLLEREQVLRVGAVFASGLLRAIRFLQLHWRELADDIESGMLNKEITDPSVKDCMVKILKPNPKLAEFVRMECSKENWEGIITRIWPNTKYLDVIVTGAMAQYIPTLDYYSGGLPLACTMYASSECYFGLNLNPMCKPSEVCYTIMPNMAYFEFLPHDPNGFTHDSTPKLVDLADVELGKEYELVITTYAGLYRYQVGDILRVTGFHNSAPQFHFVRRKNVLLSIDSDKTDEAELQKAVENASQLLREFNTSVVEYTSYADTKTIPGHYVIYWELLVKDLANSPSDEVLNQCCLAMEECLNSVYRQGRVADYSIGPLEIRVVKNGTFEELMDYAISRGASINQYKVPRCVNFTPIMELLDSRVVSKHFSPALPYWTPERRR | 2.033 | 0.845 | 806.314 | 44.225 |
| PtGH3-1: GH3 protein, accession EEE70316 (protein, listed as Populus trichocarpa) MAIESVLSPLGPPACEKDAKALQFIEDMTANVDLVQERVLKEILTSNAETEYLQKYHLNGATDRDSFKSKIPMVTYEDLQPQIQRIANGDKSPILSSHPISEFLTSSGTSAGERKLMPTIEEEMDRRQLLYSLLMPVMNLYVPGLDKGKGLYFYFIKAEAKTPGGLVARPVLTSYYKSKQFKTRPYDPYNVITSPNETILCVDSFQSMYSQMLCGLIMREEVLRVGAVFASGLLRAIRFLQLNWKELANDISTGSLNPKVTNPSIRECMAKILKPNQELAEFITKECSDENWERIITRIWPNTKYLDVIVTGAMAQYIPTLDYYSGGLPKPCTMYASSECFFGLNLRPMSEPSEVSYTIMPNMGYFEFLPHDPSAPAFSRESPPRLLDLADLEVGKEYELVITTYSGLNRYRVGDILLVTGFYNKAPQFRFVRRKNVLLSIESDKTDEAELQKAIDNASLLLREFNTSVVEYTSYAETKIIPGHYVIYWELLVKDPANSPTEEVLNQCCLAMEESLNSVYRQSRVADNSIGPLEIRVVKNGTFEELMDYAISRGASINQYKVPRCVSFTPIMELLDSRVVSKHFSPSVPHWTPERRS | 4.798 | 0.181 | 900.907 | 39.695 |
| PiGH3-16: GH3 protein, accession CAJ14972 (protein, Pinus pinaster) MPQAKREEGIESVQESIIIATTERNRKALDFIEHATIHAAEVQAEVLLEILTRNAYTEYLERYQLTGRTDRKSFKERLPVITYEDLQPEILRIANGDMSPILSAHPISEFLTSSGTSAGERKIMPTIHEELKRRTLLYSLLMPVMNQYMKGLDKGKGMYFLFVKSETRTPGGLLARPVLTSYYKSQDFIERPYDPYNVYTSPMEAILCSDSYQSMYCQLLCGLAQNHEVLRVGAVFASGLLRAIRFLEEHWQSLCQDIRSGTVNDEEVTDPCLRESVMKILHPNTQLADLIRTECSKESWQGIITRLWPNARYLDVIVTGAMAQYIKTLDFYSGGLPQVCTMYASSECYFGINLKPLCQPWEVSYTLMPNMAFFEFLPVYRNKNEDAGPVTTATEQPAELVDLVDVKVGQEYELVITTYSGLYRYRVGDVLRVTGFHNAAPQFQFVCRKNVMLSIDADKTDEAELHNAVMNAVKHLEPLEATLVEYTSYTDTSTIPGHYVLYWELRTSALPVPPSVFEDCCLTVEESLNSVYRQCRVADKSIGPLEIKVVEMGTFDKLMDYAISRGSSINQYKAARCVKFAPMVDILNSRVSASYFSPRCPKWTAGRTQWGALPR | 0.379 | 0.089 | 656.761 | 51.037 |
| NtGH3: GH3 protein, accession AAD32141 (protein, listed as Nicotiana tabacum) MAVDSVLSSPLGPPACEKDAKALQFIEEMTRNADAVQERVLNEILTRNSQTEYLKRFKLDGVSDRETFKNKIPVVTYEDLQPEIQRIANGDRSPILSAHPISEFLTSSGTSAGERKLMPTIKEELDRRQLLYSLLMPVMNLYVPGLDKGKGLYFLFIKSETKTPGGLLARPVLTSYYKSEHFKRRPHDPYNVYTSPNEAILCADSFQSMYTQMLCGLYEREQVLRLGAVFASGLVRAIRFLQLHWPQLAHDIRTGTLNPEITDPSICERMGLVMRPNPKLADFVTDECSKENWEGIITRIWPKTKYLDVIVTGAMAQYIPTLDYYSGGLPKACTMYAASECYFGLNLNPMCKPSEVSYTIMPNMGYFEFLPHDPNSSRDSTRNLVDLVDVEVGKEYELVITTYAGLYRYRVGDILRVTGFHNSAPQFHFVRRKNVLLSIDSDKTDEAELQRAVENASKLLKEFNTSVVEYTSYADTKTIPGHYVIYWELLMKDLNNSPSDEVLNKCCLAMEESLNTVYRQGRVACNSIGPLEIRVVKNGTFEELMDYAISRGASINQYKVPRCVSFAPILELLDSRVMSRHFSPSLPQWTPERRH | 1.990 | 0.804 | 716.658 | 34.341 |
| PtGH3-8: GH3 protein, accession EEE78719 (protein, listed as Populus trichocarpa) MLPIFDPNDNEAGLKLLEDLTNNACQIQRQVLEYILTTNLHTGYLKSFLNGDSSKENFKNKVPIVNYEDIKPCIERIANGEPSSIISAQPITELLTSSGTSGGQPKMMPSTAEELERKTFFYNLLMPIMNKYVDGLDQGKGMYLLFTKPEISTPSGLMARPVLTSYYKSSNFRNRAFNRYNVYTSPDETILCPDSKQSMYCQLLCGLVQREEVLRVGAVFASAFLRAIKFLEEYQKELCSNIRTGRLSDWITDPNCRNAVSSFLSKPNSELADLIEVECSGKSCEGIIKKLWPRTKYIEVIVTGSMAQYIPTLEFYSGGLPLVSTMYGSSECYLGINFKPLSNPSDVSYTLIPNMAYFEFLPVDKDNKKVIQAEKDVEAVDLEDVKLGHYYELVVTTFTGLYRYRVGDILMVTGFYNNAPQFRFVHRRNVVLSIDTDKTNEEDLLKAVTQAKVLLEPLGFLLTEYTSFADTSSIPGHYVLFWELKTQGTNDLPELDPITMEKCCSTVEESLDSIYRRCRKKDKSIGPLEIRVVTHGTFDALMDFCVSQGSSVNQYKTTRCIKSEEAFKILHSRVVGRFFSKKTPFWE | 0.000 | 0.559 | 13.999 | 568.780 |
| PtGH3-2: GH3 protein, accession EEE87842 (protein, listed as Populus trichocarpa) MAVDNALSSPLGPPACEKDAKALQFLEEMTRNADSVQEDVLAKILTQNSEVEYLKRFNLDGAIDRETFKSKIPMIRYEDLQPEIQRIANGDRSSILSAHPISEFLTSSGTSAGERKLMPTIKQELDRRQLLYSLLMPVMNLYVPGLDKGKGLYFLFVKSETRTPGGLLARPVLTSYYKSDHFKTRPYDPYNVYTSPNEAILCADSFQSMYTQMLCGLLEREQVLRVGAVFASGLLRAIRFLQLHWRELSDDIESGMLNKKITDPTVKDCMVNILKPNPKLAEFVRMECGKENWEGIITRIWPNTKYLDVIVTGAMAQYIPTLDYYSGGLPKACTMYASSECYFGLNLNPMCKPSEVCYTIMPNMAYFEFLPHEPAGISQDSTPKLVDLADVELGKEYELVITTYAGLYRYRVGDILRVTGFHNSAPQFHFVRRKNVLLSIDSDKTDEAELQTAVENASQLLREFNTSVVEYTSHADTKTIPGHYVIYWELLVKDSANSPGDEVLNQCCLAMEESLNSVYRQGRVADNSIGPLEIRVVKNGTFEELMDYAISRGASINQYKVPRCVNFTPIMELLDSRVVSKHFSPALPRWAPERRR | 0.934 | 0.203 | 679.646 | 53.401 |
